Where two headings read alike, the source gives them in different places. No end group written: not given here.
Experiments:
[1] = biological target: soluble I-A^g7 (I-Aα–Fos / I-Aβ–Jun heterodimer) (mouse (NOD) | not stated); assay: antibody-capture peptide binding assay with europium-streptavidin
[2] = biological target: soluble I-A^g7 (I-Aα–Fos / I-Aβ–Jun heterodimer) (mouse (NOD) | not stated); assay: as above; remark: listed apart in the source
[3] = biological target: soluble I-A^g7 (I-Aα–Fos / I-Aβ–Jun heterodimer) (mouse (NOD) | not stated); assay: peptide dissociation assay
[4] = biological target: soluble I-A^g7 (I-Aα–Fos / I-Aβ–Jun heterodimer) (mouse (NOD) | not stated); assay: peptide dissociation assay; remark: listed apart in the source
I-A^g7 [5] = format: binding, NOD mice; details: pH 5, competitor 8 nM–25 μM vs biotinylated transferrin peptide (1 μM)
I-A^g7 [6] = format: binding, NOD mice; details: biotinylated peptide, pH 5.0, 37°C

Row | Molecule | IC50 [1] | IC50 [2] | other results
1 | Murine CLIP (86–100) peptide, unlabeled | 50 µM | > 125 µM | 
2 | Murine transferrin (55–68) peptide, biotinylated |  |  | dissociation time (t1/2) [3]: > 72 h; dissociation time (t1/2) [4]: 45 h
3 | EEVDMTPADALDDFD [HSV-2 VP16 (430–444)] |  |  | Binding to I-A^g7 in competition assay (in words) (I-A^g7 [5]): competed for binding of the biotinylated transferrin peptide at high peptide concentrations; Binding to I-A^g7 in direct binding assay (in words), pH 5.0 (I-A^g7 [6]): little binding
4 | Murine serum albumin (560–574) peptide, biotinylated |  |  | dissociation time (t1/2) [3]: > 72 h; dissociation time (t1/2) [4]: > 72 h
5 | Murine CLIP (86–100) peptide, biotinylated |  |  | dissociation time (t1/2) [4]: 1 h
6 | PVSQMRMATPLLARP [Murine CLIP analogue with A at position 98 (P9), unlabeled] | 2 µM | 15 µM | 
7 | PVSQMRMATPLLFRP [Murine CLIP analogue with F at position 98 (P9), unlabeled] | 80 µM | 50 µM | 
8 | PVSQMRMATPLLHRP [Murine CLIP analogue with H at position 98 (P9), unlabeled] | 4 µM | > 125 µM | 
9 | PVSQMRMATPLLDRP (also: biotinylated, position not given here) [Murine CLIP 98D analogue, biotinylated] |  |  | dissociation time (t1/2) [3]: 70 h; dissociation time (t1/2) [4]: 23 h
10 | GCALLRCIPALDSLTPANED (cysteine pairing not given here; also: biotinylated, position not given here) [Human HSP60 (441–460) peptide, biotinylated] |  |  | dissociation time (t1/2) [3]: 25 h; dissociation time (t1/2) [4]: 14 h
11 | PVSQMRMATPLLIRP [Murine CLIP analogue with I at position 98 (P9), unlabeled] | > 125 µM | > 125 µM | 
12 | PVSQMRMATPLLCRP [Murine CLIP analogue with C at position 98 (P9), unlabeled] | 40 µM |  | 
13 | PVSQMRMATPLLGRP [Murine CLIP analogue with G at position 98 (P9), unlabeled] | 10 µM | > 125 µM | 

The next lines start with results.

Row | IC50 [1] | IC50 [2] | Molecule | other results
14 | 50 µM |  | Murine CLIP analogue with V at position 98 (P9), unlabeled (from UniProt P04441 86-100) (peptide) | 
15 | 40 µM |  | PVSQMRMATPLLSRP [Murine CLIP analogue with S at position 98 (P9), unlabeled] | 
16 | > 125 µM | > 125 µM | PVSQMRMATPLLRRP [Murine CLIP analogue with R at position 98 (P9), unlabeled] | 
17 | 40 µM | > 125 µM | PVSQMRMATPLLLRP [Murine CLIP analogue with L at position 98 (P9), unlabeled] | 
18 | > 125 µM | > 125 µM | PVSQMRMATPLLPRP [Murine CLIP analogue with P at position 98 (P9), unlabeled] | 
19 | 80 µM | > 125 µM | PVSQMRMATPLLWRP [Murine CLIP analogue with W at position 98 (P9), unlabeled] | 
20 | 80 µM | 125 µM | PVSQMRMATPLLNRP [Murine CLIP analogue with N at position 98 (P9), unlabeled] | 
21 | > 125 µM | 40 µM | PVSQMRMATPLLTRP [Murine CLIP analogue with T at position 98 (P9), unlabeled] | 
22 | > 125 µM | 60 µM | PVSQMRMATPLLYRP [Murine CLIP analogue with Y at position 98 (P9), unlabeled] | 
23 | > 125 µM | > 125 µM | PVSQMRMATPLLKRP [Murine CLIP analogue with K at position 98 (P9), unlabeled] | 
24 | 25 µM | > 125 µM | PVSQMRMATPLLQRP [Murine CLIP analogue with Q at position 98 (P9), unlabeled] | 

From PMC2193072 (The Journal of Experimental Medicine, 1999)
